Source: patent US20170183404A1 (VIB VZW, published 2017)

biological target: T1, wild-type human Mor1 (human mu-type opioid receptor) (human, UniProt P35372 1-400); test: displacement of 1 nM [3H]-diprenorphine from WT hMor1/CHO membranes by a concentration range of XA8635
T1 construct: Used as CHO membranes (Perkin Elmer ES-542-M400UA) in the radioligand assay and on transfected CHO cells in flow cytometry; also called WT hMor1/CHO; hMor1/CHO
Protocol: The mixture was incubated for 1 hour at RT and after washing, filter bound radioligand was measured.

T1 sequence (P35372 whole entry): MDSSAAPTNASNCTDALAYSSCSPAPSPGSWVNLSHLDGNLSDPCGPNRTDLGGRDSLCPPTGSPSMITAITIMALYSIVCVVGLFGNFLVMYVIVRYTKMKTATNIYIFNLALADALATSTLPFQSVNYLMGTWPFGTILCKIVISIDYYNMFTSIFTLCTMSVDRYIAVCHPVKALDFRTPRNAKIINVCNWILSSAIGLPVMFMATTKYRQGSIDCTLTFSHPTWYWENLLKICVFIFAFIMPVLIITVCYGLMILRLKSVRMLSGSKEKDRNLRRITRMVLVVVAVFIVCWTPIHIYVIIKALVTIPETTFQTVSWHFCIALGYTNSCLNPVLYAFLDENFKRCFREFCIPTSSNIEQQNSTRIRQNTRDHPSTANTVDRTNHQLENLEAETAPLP

Row | Binder | binding result
1 | XA8635 (VHH, Tested as periplasmic extract and as purified protein; also called 601H10; monovalent XA8635) VHH: QVQLVESGGGLVQAGGSLRLSCAASGSISSISTMGWYRQAPGNERELVAAITSGGSTNYADSVKGRFTISRDNAKNTVYLQMNSLKPEDTAVYYCNFKYYSGSYFYKSEYDYWGQGTQVTVSS | binds

biological target: T2, truncDelta mMor1 reconstituted in liposomes (mouse, UniProt P42866 52-358); test: ELISA (OD405), five-fold diluted periplasm, 10 µM Dmt1-Dalda; reference: mock liposomes
T2 construct: The assayed protein lacks the N-terminal part before the TEV site and the C-terminal part after the 3C site; It was purified, doped with Dmt1-Dalda and reconstituted in DOPC/CHS/lipid A vesicles; also called truncDelta mMor1 liposome; recombinant mMOR1 reconstituted in liposomes
Protocol: DNPP (Sigma, cat nr 71768) was used to develop the colorimetric signal. Absorbance was measured at OD405 nm and results are depicted in FIG. 6. […] All VHHs tested confirm specific binding to truncDelta mMor1 reconstituted in liposomes. As truncDelta mMor1 is truncated at its N- and C-terminus, most likely these VHHs interact with extracellular or intracellular Mor1 conformational epitopes.

T2 sequence (P42866 52-358, tags or fused parts left off): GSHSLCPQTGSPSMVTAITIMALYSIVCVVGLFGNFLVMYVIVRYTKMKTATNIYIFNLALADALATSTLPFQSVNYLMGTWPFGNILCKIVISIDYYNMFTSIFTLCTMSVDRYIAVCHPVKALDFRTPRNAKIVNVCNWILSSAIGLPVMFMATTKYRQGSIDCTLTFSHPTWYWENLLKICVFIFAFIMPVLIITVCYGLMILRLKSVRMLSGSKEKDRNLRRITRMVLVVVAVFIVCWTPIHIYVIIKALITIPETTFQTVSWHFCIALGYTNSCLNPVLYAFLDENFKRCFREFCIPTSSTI

Row | Binder | absorbance on truncDelta mMor1 liposomes relative to mock liposomes [fold]
2 | XA8643 (VHH, Tested as periplasmic extract; also called 598G11; X8643) VHH: QVQLVESGGGLVRPGGSLRLSCVDSERTSYPMGWFRRAPGKEREFVASITWSGIDPTYADSVADRFTISRDVANNTLYLQMNSLKHEDTAVYYCAARAPVGQSSSPYDYDYWGQGTQVTVSS | ≥ 3
3 | XA8641 (VHH, Tested as periplasmic extract; also called 598A2; Profile I VHH) VHH: QVQLVESGGGLVRPGGSLRLSCVDSGRTSYPMGWFRRAPGKEREFVASITWSGIDPTYADSVADRFTISRDVANNTLYLQMNSLKHEDTAVYYCAARAPVGQSSSPYDYDYWGQGTQVTVSS | ≥ 3
4 | XA8639 (VHH, also called 598A7; Nb39) VHH: QVQLVESGGGLVRPGGSLRLSCVDSERTSYPMGWFRRAPGKEREFVASITWSGIDPTYADSVADRFTTSRDVANNTLYLQMNSLKHEDTAVYYCAARAPVGQSSSPYDYDYWGQGTQVTVSS | ≥ 3
5 | XA8635 (VHH, Tested as periplasmic extract and as purified protein; also called 601H10; monovalent XA8635) VHH: QVQLVESGGGLVQAGGSLRLSCAASGSISSISTMGWYRQAPGNERELVAAITSGGSTNYADSVKGRFTISRDNAKNTVYLQMNSLKPEDTAVYYCNFKYYSGSYFYKSEYDYWGQGTQVTVSS | ≥ 3
6 | XA8727 (VHH, Tested as periplasmic extract; also called 599D2; Profile III VHH) VHH: QVQLVESGGGLVQAGGSLRLSCAASGFTFDDYAIAWFRQAPGKEREGVSCISSSDGSTYYADSVKGRFTISNDNAKNTVYLQMNSLKPEDTAVYYCAADLSRSCGRGYRYLEVWGQGTQVTVSS | ≥ 3
